Data reported in patent publication US12692324B2, “Anti-chitinase-3-like protein-1 (YKL-40) neutralizing antibody and uses thereof” (Institute of Nuclear Energy Research, Atomic Energy …, priority 2022, dated 2026).
Entries after “also recorded” stand apart in the source; their conditions may differ.

B1: YKL-40 neutralizing antibody: isolated neutralizing antibody specifically binding chitinase-3-like protein-1 (YKL-40); VH SEQ ID NO: 7, VL SEQ ID NO: 8 (antibody, V domains shown)
VH: QIQLVQSGPELKKPGETVRISCKASGYTFPNYGMNWVKQAPGKGLKWMGWINTYTGEPTYTVDFKGQFAFSLETSASTAYLQINNLKNEDTATYFCARSFYGTNGFDYWGQGTTLTVSS
VL: NIVMTQSPKSMSMSVGERVTLSCKASENVGTYVSWYQQKPEQSPKLVIYGASNRYIGVPDRFTGSGSATDFTLTISSVEAEDLADYHCGQSYSYPPTFGGGTKLEIK
modifications: recombinant YKL-40 neutralizing antibody

Tests used:
[1] = test system: human ovarian cancer cell CA5171; conditions: for proportion of Annexin V/7-AAD-positive apoptosis: CA5171, 50 μg/mL YKL-40 neutralizing antibody and/or 2.5 nM paclitaxel, 37° C., 48 hours
Description: It is important to know whether the YKL-40 neutralizing antibody of the present disclosure can induce cell apoptosis after combining with human ovarian cell CA5171. In this experiment, two specific dyes “7-amino-actinomycin D” (7-AAD) and “Annexin V” are used in the flow cytometry analysis to detect if the YKL-40 neutralizing antibody induces the cell apoptosis. In addition, the combination treatment of the chemotherapy drug paclitaxel and the YKL-40 neutralizing antibody is also analyzed in this experiment.
The experiment procedure applied herein is, firstly, to treat human ovarian cancer cell CA5171 with a final concentration of 50 μg/mL YKL-40 neutralizing antibody and/or 2.5 nM paclitaxel, then culture them at 37° C. for 48 hours. The control group is treated with normal saline. After the culturing, the cells are collected and stained with 7-AAD and FITC-conjugated annexin V (FITC, Fluorescein isothiocyanate) dyes for 30 minutes. After staining, the cells are washed by using cytometer analysis solution (normal saline with a final concentration of 0.2% fetal bovine serum and 0.5% sodium azide), and then analyzed by flow cytometry.

[2] = test system: CA5171 ovarian cancer cells, which overexpress chitinase-3-like protein-1; experiment: Nano SPECT/CT bioimaging in tumor-carried mice; type: in vivo; conditions: tail vein injection
From the text: In order to verify these research results in a tumor-carried animal model, the CA5171 ovarian cancer cells, which overexpress chitinase-3-like protein-1, are inoculated in the left hind limb of the experiment animals. After the tumor volume grow to 200-300 mm3, use indium-111-DTPA-YKL-40 antibody complex as a radio-diagnostic drug for tumor mapping. The method of administration of diagnostic drugs is to inject the indium-111-DTPA-YKL-40 antibody complex by tail vein injection. Three tumor-carried mice are used as the animal model in both control and treatment groups, and the cross-sections of transverse, sagittal, and coronal are then taken at different time points such as 1, 4, 24 and 48 hours after administration. The tumor-carried mice of the control group are injected with indium-111-DTPA only, without YKL-40 antibody complex. […] The accumulation of the radioactive drug can at least last for 24 hours as shown in the results.

[3] = test system: human ovarian cancer cell CA5171; experiment: Binding ability of antibody to human ovarian cancer cell CA5171 by flow cytometry; type: cell-based
Description: When the YKL-40 neutralizing antibody of the present disclosure is isolated and purified, its binding ability to human ovarian cell CA5171 is then evaluated by flow cytometry. In this example, the antibody of the control group and YKL-40 neutralizing antibody are respectively added to the culture of the ovarian cell CA5171. After a period of culturing, the human ovarian cell CA5171 are then analyzed by flow cytometry. Please refer to FIGS. 1A and 1B. […] From the results, the binding ability of the control group antibody IgG is 28.69%, while the binding ability of the YKL-40 neutralizing antibody is as high as 71.57%.

Row | Molecule | proportion of Annexin V/7-AAD-positive apoptosis [1] | time the radioactive drug sustains in the abdominal organs [2] | cytotoxicity (in words) [1] | binding ability ([3]; human ovarian cell CA5171) | binding to CA5171 cells (in words) ([3]; versus control IgG antibody)
1 | CC(=O)O[C@H]1C(=O)[C@@]2(C)[C@H]([C@H](OC(=O)c3ccccc3)[C@]3(O)C[C@H](OC(=O)[C@H](O)[C@@H](NC(=O)c4ccccc4)c4ccccc4)C(C)=C1C3(C)C)[C@]1(OC(C)=O)CO[C@@H]1C[C@@H]2O [paclitaxel, reference compound] | 43.90%±0.35% |  |  |  | 
2 | O=C([O-])CN(CCN(CC(=O)[O-])CC(=O)[O-])CCN(CC(=O)[O-])CC(=O)[O-].[111In+3].[H+].[H+] [indium-111-DTPA] |  | 1 h |  |  | 
3 | B1 | 3.91±0.11% |  | not observed to be cytotoxic | 71.57% | stronger binding ability to CA5171 ovarian cells than the control group; also recorded: can significantly bind to human ovarian cancer cell CA5171
